Assay results: publication doi:10.1101/2023.06.23.546279 (bioRxiv, 2023)

Columns and labels:
Tho2 = Tho2 (S. cerevisiae, UniProt P53552 1-1597); assay: affinity purification with mass spectrometry
Mft1 = target: T1, Mft1 (S. cerevisiae, UniProt P33441 1-392); assay: cross-linking
T1 sequence: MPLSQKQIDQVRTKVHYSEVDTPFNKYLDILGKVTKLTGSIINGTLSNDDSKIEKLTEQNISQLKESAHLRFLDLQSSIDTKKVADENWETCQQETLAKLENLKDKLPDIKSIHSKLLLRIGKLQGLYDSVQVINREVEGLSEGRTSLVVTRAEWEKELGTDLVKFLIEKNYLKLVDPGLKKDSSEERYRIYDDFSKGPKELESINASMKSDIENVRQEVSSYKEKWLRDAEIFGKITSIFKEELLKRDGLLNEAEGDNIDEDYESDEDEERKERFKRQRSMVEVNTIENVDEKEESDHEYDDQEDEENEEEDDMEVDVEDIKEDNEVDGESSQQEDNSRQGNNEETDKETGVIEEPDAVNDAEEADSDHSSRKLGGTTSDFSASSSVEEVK

Tho2, sequence (P53552 whole entry): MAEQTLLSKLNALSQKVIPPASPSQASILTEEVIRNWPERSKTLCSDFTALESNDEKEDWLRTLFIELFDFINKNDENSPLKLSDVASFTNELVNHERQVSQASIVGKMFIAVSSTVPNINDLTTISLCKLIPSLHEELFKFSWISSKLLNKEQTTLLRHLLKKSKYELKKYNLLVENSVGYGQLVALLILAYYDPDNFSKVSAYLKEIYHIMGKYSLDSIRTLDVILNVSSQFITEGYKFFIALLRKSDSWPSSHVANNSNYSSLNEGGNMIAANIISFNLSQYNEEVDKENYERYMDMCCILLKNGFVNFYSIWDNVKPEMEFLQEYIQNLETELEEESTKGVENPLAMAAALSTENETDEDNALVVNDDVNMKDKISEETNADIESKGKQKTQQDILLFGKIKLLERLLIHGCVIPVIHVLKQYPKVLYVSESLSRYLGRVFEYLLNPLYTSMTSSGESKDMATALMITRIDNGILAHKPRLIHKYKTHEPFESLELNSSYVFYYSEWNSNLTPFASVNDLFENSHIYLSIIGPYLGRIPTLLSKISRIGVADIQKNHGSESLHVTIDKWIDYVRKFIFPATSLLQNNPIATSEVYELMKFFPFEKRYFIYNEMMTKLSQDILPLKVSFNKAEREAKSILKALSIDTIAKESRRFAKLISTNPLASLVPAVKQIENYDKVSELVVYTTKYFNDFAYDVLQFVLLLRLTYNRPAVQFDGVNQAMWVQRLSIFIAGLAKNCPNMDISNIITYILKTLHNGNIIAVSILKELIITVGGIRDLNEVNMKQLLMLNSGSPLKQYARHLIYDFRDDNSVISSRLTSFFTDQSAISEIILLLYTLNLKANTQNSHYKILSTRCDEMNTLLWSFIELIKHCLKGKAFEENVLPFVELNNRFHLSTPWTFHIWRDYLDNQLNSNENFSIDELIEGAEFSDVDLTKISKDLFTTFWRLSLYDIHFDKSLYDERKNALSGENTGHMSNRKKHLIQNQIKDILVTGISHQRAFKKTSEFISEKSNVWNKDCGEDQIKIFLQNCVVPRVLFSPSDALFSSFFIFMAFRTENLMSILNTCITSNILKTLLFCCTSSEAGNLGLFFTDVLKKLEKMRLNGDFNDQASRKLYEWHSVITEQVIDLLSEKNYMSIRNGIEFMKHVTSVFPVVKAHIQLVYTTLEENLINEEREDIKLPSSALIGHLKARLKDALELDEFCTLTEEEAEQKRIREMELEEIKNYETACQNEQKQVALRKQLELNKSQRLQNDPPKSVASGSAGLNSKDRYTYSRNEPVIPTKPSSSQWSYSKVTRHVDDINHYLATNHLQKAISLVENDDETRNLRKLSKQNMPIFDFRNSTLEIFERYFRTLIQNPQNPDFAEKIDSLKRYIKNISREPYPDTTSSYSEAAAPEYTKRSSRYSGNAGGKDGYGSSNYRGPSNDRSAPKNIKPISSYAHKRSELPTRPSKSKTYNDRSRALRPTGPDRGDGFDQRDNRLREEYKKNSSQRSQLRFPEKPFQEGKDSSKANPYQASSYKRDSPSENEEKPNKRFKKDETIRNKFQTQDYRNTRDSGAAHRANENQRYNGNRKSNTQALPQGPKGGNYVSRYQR

binding result (Tho2) | binding result (Mft1) | Binder
binds |  | Hpr1 with a C-terminal FLAG-TEV-2xProtein-A (FTpA) tag (natural protein) MSNTEELIQNSIGFLQKTFKALPVSFDSIRHEPLPSSMLHASVLNFEWEPLEKNISAIHDRDSLIDIILKRFIIDSMTNAIEDEEENNLEKGLLNSCIGLDFVYNSRFNRSNPASWGNTFFELFSTIIDLLNSPSTFLKFWPYAESRIEWFKMNTSVEPVSLGESNLISYKQPLYEKLRHWNDILAKLENNDILNTVKHYNMKYKLENFLSELLPINEESNFNRSASISALQESDNEWNRSARERESNRSSDVIFAADYNFVFYHLIICPIEFAFSDLEYKNDVDRSLSPLLDAILEIEENFYSKIKMNNRTRYSLEEALNTEYYANYDVMTPKLPVYMKHSNAMKMDRNEFWANLQNIKESDDYTLRPTIMDISLSNTTCLYKQLTQEDDDYYRKQFILQLCFTTNLIRNLISSDETRNFYKSCYLRENPLSDIDFENLDEVNKKRGLNLCSYICDNRVLKFYKIKDPDFYRVIRKLMSSDEKFTTAKIDGFKEFQNFRISKEKIPPPAFDETFKKFTFIKMGNKLINNVWKIPTGLDKIEQEVKKPEGVYEAAQAKWESKISSETSGGEAKDEIIRQWQTLRFLRSRYLFDFDKVNEKTGVDGLFEEPRKVEALDDSFKEKLLYKINQEHRKKLQDAREYKIGKERKKRALEEEASFPEREQKIKSQRINSASQTEGDELKSEQTQPKGEISEENTKIKSSEVSSQDPDSGVAGEFAPQNTTAQLENPKTEDNNAATSNISNGSSTQDMK
 | binds | Thp2 (natural protein) MTKEEGRTYFESLCEEEQSLQESQTHLLNILDILSVLADPRSSDDLLTESLKKLPDLHRELINSSIRLRYDKYQTREAQLLEDTKTGRDVAAGVQNPKSISEYYSTFEHLNRDTLRYINLLKRLSVDLAKQVEVSDPSVTVYEMDKWVPSEKLQGILEQYCAPDTDIRGVDAQIKNYLDQIKMARAKFGLENKYSLKERLSTLTKELNHWRKEWDDIEMLMFGDDAHSMKKMIQKIDSLKSEINAPSESYPVDKEGDIVLE
